Experimental data: patent EP4293040A1

Target: human trimeric IL-2 receptor (IL-2Rα, IL2Rβ and reconstituted transgenic wild-type GCR) on GnR cells (human) (UniProt P01589)
Assay: cell-based or functional assay

- EC50 of the mRuby2 response (STAT5-mRuby2 reporter): 560 pM
Substance: IL-15 (from UniProt P40933 49-162) (ligand)
